The record followed here is patent US20090041783A1 (MOCHIDA PHARMACEUTICAL, published 2009).

Assay [1] has as its target T1, human platelet membrane glycoprotein VI (GPVI) on human platelets (human, UniProt Q9HCN6 21-339).
T1 construct: whole, on cells
T1 sequence (looked up): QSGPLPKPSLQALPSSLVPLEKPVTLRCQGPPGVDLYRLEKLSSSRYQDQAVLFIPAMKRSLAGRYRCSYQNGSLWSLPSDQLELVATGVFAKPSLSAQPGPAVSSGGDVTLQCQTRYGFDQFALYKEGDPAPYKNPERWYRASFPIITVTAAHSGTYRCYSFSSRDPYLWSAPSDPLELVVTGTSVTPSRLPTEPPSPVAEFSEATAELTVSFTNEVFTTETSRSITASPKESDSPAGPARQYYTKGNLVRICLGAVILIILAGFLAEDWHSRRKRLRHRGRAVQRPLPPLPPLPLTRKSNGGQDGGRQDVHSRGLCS
Briefly: flow cytometry on human platelets, 3-4 µg/mL antibody, anti-human IgM-FITC. The method, then:
Cynomolgus monkey and human PRPs prepared by the method described in 18-1 of EXAMPLE 18 were diluted with FACS buffer to make the platelet concentration 3.75×10⁸ cells/mL. To the diluted PRP, cF1232-37-2 (IgM) or cF1232-43-3 (IgM) prepared in the above 29-2 was added at the final concentration of 3-4 μg/mL, and stood at 25° C. for 30 minutes. After incubation, the platelet was washed with FACS buffer. Subsequently, after adding anti-human IgM-FITC (BD Biosciences Pharmingen) and standing at room temperature for 30 minutes, the platelet was washed with FACS buffer and the fluorescence intensity of the platelet was measured with flow cytometer CYTOMICS FC500 (BECKMAN COULTER). As a result, it was confirmed that both antibodies of cF1232-37-2 (IgM) and cF1232-43-3 (IgM) bind to the monkey and the human platelet.
(Flow cytometry measures light scatter and fluorescence of single cells or particles in a stream.)

Assay [2] has as its target T2, human GPVI extracellular region-human Fc fusion protein (hGPVI-hFc) (human).
T2 construct: Expressed in COS-1, purified on Protein A; also called GPVI-HHH-hFc; hGPVIHHH-hFc
Description: ELISA on immobilised hGPVI-hFc, anti-human mu-chain detection. On the technique in general: An ELISA detects its analyte on a solid surface through an enzyme-linked reagent.

B1: mouse/human chimeric IgM-type F1232-37-2, cF1232-37-2 (IgM) (antibody)
VH: VQLQQSGPELVRPGESVKISCKGSGYTFTDYAIHWVKLSHAKSLEWIGVISIYYDDTNYNQKFKGKATMTVDKSSSTAYLELARLTSEDSAIYYCARRRDSSGPYAMDYWGQGTSVTVSS
VL: DIVLTQSPASLAVSLGQRATISCRASESVDSYGNSFMHWYQQKPGQPPKLLIYRASNLESGIPARFSGSGSRTDFTLTINPVEADDVATYYCQQSNEDPYTFGGGTKLEIKRADAA
chain: not shown
notes: Heavy chain: V region of cF1232-37-2 with human mu-chain constant region (pTK-2820); the CDRs of both clones are printed identical; Human kappa constant region
With B1, the binding result in assay [1] and in assay [2] was “binds” in each case.
